Test [1] has as its target EphB2-Fc. Nature of the test: SPR, EphB2-Fc immobilised on CM5, 100 nM analyte.
Test [2] concerns the target EphB2-Fc. Kind of test: SPR competition on immobilised EphB2-Fc; competitor ephrinB2-Fc (246 nM), 0-1020 nM GST-Azu 88-113.
The target in test [3] is EphB2-Fc. Kind of test: SPR competition on immobilised EphB2-Fc; competitor ephrinB2-Fc (246 nM) preincubated with 0-1020 nM GST-Azu 88-113.
Chain of EphB2-Fc (P54763 19-543): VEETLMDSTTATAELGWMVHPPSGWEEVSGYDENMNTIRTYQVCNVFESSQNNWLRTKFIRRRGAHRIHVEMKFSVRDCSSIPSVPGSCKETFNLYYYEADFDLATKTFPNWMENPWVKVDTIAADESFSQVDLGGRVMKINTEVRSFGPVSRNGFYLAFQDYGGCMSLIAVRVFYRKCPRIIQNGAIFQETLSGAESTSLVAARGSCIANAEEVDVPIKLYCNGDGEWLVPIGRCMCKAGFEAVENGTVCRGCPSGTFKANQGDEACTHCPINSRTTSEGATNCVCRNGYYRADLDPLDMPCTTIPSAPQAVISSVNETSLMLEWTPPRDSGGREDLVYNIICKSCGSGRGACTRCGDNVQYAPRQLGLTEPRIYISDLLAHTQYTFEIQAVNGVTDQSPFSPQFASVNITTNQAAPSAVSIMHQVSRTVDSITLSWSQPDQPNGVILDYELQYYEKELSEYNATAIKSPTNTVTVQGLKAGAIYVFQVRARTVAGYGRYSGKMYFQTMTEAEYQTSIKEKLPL

Chain of GST-Azu 88-113 (chain): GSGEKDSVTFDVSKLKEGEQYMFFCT
Chain of GST-Azu 36-89 (B3EWN9 36-89): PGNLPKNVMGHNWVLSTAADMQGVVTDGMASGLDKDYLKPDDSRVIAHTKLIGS

As to “GST-Azu 36-89 (from UniProt B3EWN9 36-89)”, in the test with EphB2-Fc [1], the Req in RU was determined as 57 RU.

Turning to GST-Azu 88-113, in the test with EphB2-Fc [2], the level at which the inhibition levels off lay within 40 to 50%. The same substance returned a reduction of total protein binding to the surface in the test with EphB2-Fc [3] of less than 60%.

The record behind these values is patent US20180319847A1.
